Data taken from US20160369001A1 (JCR PHARMACEUTICALS, published 2016).

B1: mouse single-chain anti-hTfR antibody of Clone M11 (maltose binding protein fusion, E. coli lysate supernatant) (scFv, not shown: large carriers)
scFv: DYKDIVMTQSHKFMSTSVGDRVSITCKASQDVGTAVAWYQQKPGQSPKLLIYWASTRHTGVPDRFTGSGSGTDFTLTISNVQSEDLADYFCQQYSSYLTFGAGTKLELKRGGGGSGGGGSGGGGSGGGGSEVMLVESGGDLVKPGGSLKLSCAASGFTFSSYGMSWVRQTPDKRLEWVATISSGGSYTYYPDSVKGRFTISRDNAKNTLYLQMSSLKSEDTAMYYCALLRSDWYFDVWGAGTTVTVSS
notes: Tested in the screening ELISA as an MBP fusion in crude E. coli lysate supernatant and detected with an HRP-labelled anti-MBP antibody; The scFv is light chain, linker, heavy chain
B2: mouse single-chain anti-hTfR antibody of Clone M23 (maltose binding protein fusion, E. coli lysate supernatant) (scFv, not shown: large carriers)
scFv: DYKDIVITQSHKFMSTSVGDRVSITCKASQDVSTAVAWYQQKPGQSPKLLIYSASYRYTGVPDRFTGSGSGTDFTFTISSVQAEDLAVYYCQQHYSTPYTFGGGTKLEIKRGGGGSGGGGSGGGGSGGGGSQVQLQQSGAELVRPGASVTLSCKASGYTFTDYEMHWVKQTPVHGLEWIGAIDPETGGTAYNQKFKGKATLTADKSSSTAYMELRSLTSEDSAVYYCTGWGFDYWGQGTTLTVSS
notes: Tested in the screening ELISA as an MBP fusion in crude E. coli lysate supernatant and detected with an HRP-labelled anti-MBP antibody
B3: mouse single-chain anti-hTfR antibody of Clone M27 (maltose binding protein fusion, E. coli lysate supernatant) (scFv, not shown: large carriers)
scFv: DYKDIVMTQSHKFMSTSVGDRVSITCKASQDVGTAVAWYQQKPGQSPKLLIYWASTRHTGVPDRFTGSGSGTDFTLTISNVQSEDLADYFCQQYSSYPYTFGGGTKLEIKRGGGGSGGGGSGGGGSGGGGSQVQLQQPGSELVRPGASVKLSCKASGYTFTSYWMHWVKQRPGQGLEWIGNIYPGSGSTNYDEKFKSKATLTVDTSSSTAYMQLSSLTSEDSAVYYCTRGATALDYWGQGTTLTVSS
notes: Tested in the screening ELISA as an MBP fusion in crude E. coli lysate supernatant; also called Clone 27

The binders below were run against T1, recombinant human TfR (rhTfR) (Sino Biological) (human, UniProt P02786 89-760) (assay: ELISA, rhTfR coated on plate, MBP-scFv lysate supernatant, HRP-labelled anti-MBP detection, A450).
T1 construct: Bought protein, coated on 96-well plates at 5 ug/mL; also called human transferrin receptor
Experimental: E. coli (JM109) was transformed respectively with the mouse and human single-chain anti-hTfR antibody cDNA libraries, and then disseminated on LB plates containing ampicillin (Amp), and cultured overnight at 37° C. On the following day, the colonies formed on the plates were collected one by one, with which Overnight Express™ Instant LB Medium (Novagen), which had been dispensed beforehand to 96-well plates, was inoculated. After the plates were shaken overnight at 37° C., a tenth amount of Popculture Reagent (Novagen) was added to lyse the cells, and following addition of an equal amount of TBS-T, the resulting mixture was centrifuged to collect the supernatant. This supernatant was used as a sample solution.
To each well of the 96-well plates was added 5 μg/mL of recombinant human TfR (rhTfR) (Sino Biological) or 50 μL of bovine gamma globulin (Bio-Rad, Inc.), and the plates were left undisturbed at 4° C. overnight. After removal of the solution, each well was washed once with 300 μL of TBS-T. Then, to each well was added 300 μL of 1% BSA solution, and the plates were left undisturbed for 30 minutes at room temperature. After removal of the solution, 100 μL of the above sample solution was added to each well, and the plates were left undisturbed for two hours at room temperature. After removal of the solution, each well was washed three times with 300 μL of TBS-T, and 50 μL of HRP-labelled anti MBP antibody (Novagen) was added, and the plates were left undisturbed for one hour at room temperature. After removal of the solution, each well was washed three times with 300 μL of TBS-T, then 50 μL of POD substrate solution (Nacalai Tesque, Inc.) was added, and a reaction was allowed to proceed for 10-15 minutes at room temperature. […] Three clones, M11, M23 and M27 were obtained as high affinity clones to rhTfR from the mouse single-chain anti-hTfR antibody cDNA library. A clone (B84) was obtained as a high affinity clone to rhTfR from the human single-chain anti-hTfR antibody cDNA library.

T1 sequence (P02786 89-760 limits assumed): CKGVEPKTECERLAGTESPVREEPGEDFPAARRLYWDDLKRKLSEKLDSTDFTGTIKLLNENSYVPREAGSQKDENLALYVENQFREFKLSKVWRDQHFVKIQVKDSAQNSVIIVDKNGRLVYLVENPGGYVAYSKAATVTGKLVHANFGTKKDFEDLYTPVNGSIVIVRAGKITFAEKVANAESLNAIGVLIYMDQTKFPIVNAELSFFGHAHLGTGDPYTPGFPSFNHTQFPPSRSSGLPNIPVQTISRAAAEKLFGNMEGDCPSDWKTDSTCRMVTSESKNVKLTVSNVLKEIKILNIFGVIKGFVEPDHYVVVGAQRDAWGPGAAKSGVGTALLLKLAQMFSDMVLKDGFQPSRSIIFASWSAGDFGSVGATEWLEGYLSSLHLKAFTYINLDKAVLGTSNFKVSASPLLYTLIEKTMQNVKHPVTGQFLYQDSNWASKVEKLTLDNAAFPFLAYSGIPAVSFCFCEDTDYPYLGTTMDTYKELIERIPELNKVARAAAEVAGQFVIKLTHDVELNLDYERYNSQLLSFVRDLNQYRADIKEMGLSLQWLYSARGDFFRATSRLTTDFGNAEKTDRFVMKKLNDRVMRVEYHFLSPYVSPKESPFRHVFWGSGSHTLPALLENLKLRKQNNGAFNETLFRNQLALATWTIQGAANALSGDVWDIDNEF

| binding result | Binder |
| --- | --- |
| binds | B1 |
| binds | B2 |
| binds | B3 |
